Assay results from patent publication US20160251435A1 (INHIBRX, published 2016).

B1: B6H12 CD47 antibody (antibody, from another filing, V domains shown)
VH: EVKLVESGGDLVKPGGSLKLSCAASGFTFSGYGMSWVRQTPDKRLEWVATITSGGTYTYYPDSVKGRFTISRDNAKNTLYLQIDSLKSEDTAIYFCARSLAGNAMDYWGQGTSVTVSS
VL: DIVMTQSPATLSVTPGDRVSLSCRASQTISDYLHWYQQKSHESPRLLIKFASQSISGIPSRFSGSGSGSDFTLSINSVEPEDVGVYYCQNGHGFPRTFGGGTKLEIK
B2: murine CD47 antibody 2A1 (antibody, mouse IgG1, V domains shown)
VH: EVQLQQSGAELVRSGASVKLSCTASGFNIKDYYLHWVKQRPEQGLEWIGWIDPDNGDTEFAPKFQGKATMTADTSSNTAYLQLSSLTSEDTAVYYCNAAYGSSSYPMDYWGQGTSVTV
VL: DIKMTQSPSSLYASLGERVTITCKASQDIHRYLSWFQQKPGKSPKILIYRANRLVDGVPSRFSGSGSGQDYSLTISSLEYEDMGIYYCLQYDEFPYTFGGGTKLEMK
notes: Hybridoma-derived mouse IgG1; also called 2A1-mIgG1; 2A1mIgG1

Assays:
[1] = molecular target: human CD47, endogenous cell surface form (Raji, CCRF-CEM cells) (human) (UniProt Q08722); assay: flow cytometry on CCRF-CEM cells, FITC anti-mouse IgG, MFI-FL1
[2] = molecular target: human CD47, endogenous cell surface form (Raji, CCRF-CEM cells) (human) (UniProt Q08722); assay: apparent KD, flow cytometry on Raji cells, non-linear fit of median fluorescence
[3] = molecular target: human CD47, endogenous cell surface form (Raji, CCRF-CEM cells) (human) (UniProt Q08722); assay: cell-based or functional assay
[4] = molecular target: human CD47, endogenous cell surface form (Raji, CCRF-CEM cells) (human) (UniProt Q08722); assay: flow cytometry blocking: SIRPa-Fc binding to CCRF-CEM cells with rising antibody
[5] = molecular target: T1, cynomolgus monkey CD47 on cynomolgus B-cells (cynomolgus monkey, UniProt A0A5F8AK49 19-323 (rhesus entry)); assay: flow cytometry on cynomolgus B-cells (CD20-gated PBMC), signal normalised to the maximum of the antibody on that cell population
T1 construct: whole, on cells; also called cyno CD47
Method: (§1) Cynomolgus peripheral blood mononuclear cells (PBMCs) were isolated from cynomolgus whole blood by ficoll-paque gradient centrifugation. […] Cells were analyzed by flow cytometry, first gated on live cells by FSC and SSC, then on cells positive for FL4 (CD20 positive), and lastly the median FL1 (CD47 positive) was measured. The data were normalized by dividing the signal at each concentration by the maximum signal for each antibody on each cell population.

[6] = molecular target: T2, human CD47, endogenous cell surface form (Raji, CCRF-CEM cells) (human, UniProt Q08722 19-323); assay: flow cytometry on Raji cells (CD20-gated), signal normalised to the maximum of the antibody on that cell population
T2 construct: the cells carry endogenous CD47; also called cell surface CD47
Method: as §1

[7] = molecular target: T2, human CD47, endogenous cell surface …; assay: flow cytometry blocking: SIRPa-Fc binding to CCRF-CEM cells with rising antibody
[8] = molecular target: T2, human CD47, endogenous cell surface …; assay: flow cytometry on CCRF-CEM cells, FITC anti-mouse IgG, MFI-FL1
From the text: Bound CD47 antibodies were detected using a FITC conjugated anti-mouse IgG secondary antibody (Jackson ImmunoResearch).

[9] = molecular target: T2, human CD47, endogenous cell surface …; assay: apparent KD, flow cytometry on Raji cells, non-linear fit of median fluorescence
[10] = molecular target: T3, recombinant His-tagged-CD47-IgV (human, UniProt Q08722 19-134); assay: blocking ELISA: SIRPa-Fc binding to immobilised His-CD47-IgV with rising antibody
T3 construct: not shown: His tag

Binder	EC50 (read off the curve) [1]	Kd [2]	phagocytosis of CFSE-labeled CCRF-CEM tumor cells by human monocyte derived macrophages [3]	IC50 (read off the curve) [4]	EC50 (read off the curve) [5]	EC50 (read off the curve) [6]	IC50 (read off the curve) [7]	EC50 (read off the curve) [8]	Kd [9]	IC50 (read off the curve) [10]
B1	3 nM	3.79 nM	> 66.7 pM	9 nM						
B2					~0.4 nM	~0.4 nM	~0.7 nM	~0.4 nM	0.0936 nM	~5 nM
